This note sets out measurements from patent US20080227698A1, “OLIGOPEPTIDES FOR TREATMENT OF OSTEOPOROSIS AND OTHER BONE DISEASES AND METHODS THEREOF” (Washington University, priority 2005, published 2008).

Test [1] relates to LRP6. Briefly: ^125I-Mesd cell surface ligand binding to LRP6-transduced HT1080 cells. More on the design: species or system human. To be noted: HT1080 cells transduced with vector alone, ^125I-Mesd 5 nM, 4° C. The protocol:
To examine whether Mesd binds with high affinity to […] at the cell surface, cell surface ligand binding experiments were performed with cells stably transduced with LRP6 cDNA. Human HT1080 cells, which express undetectable levels of LRP6, were transduced with a viral vector alone (pLNCX2) or with vector containing LRP6 cDNA (Li, Y., Oncogene 23: 9129-9135, 2004) and used for ^125I-Mesd binding (FIG. 1A). ^125I-Mesd (5 nM) reached maximal binding after 2 hours incubation at 4° C. with LRP6-expressing HT1080 cells (FIG. 1A).
(A) Time course of ^125I-Mesd (5 nM) binding to LRP6-transduced HT1080 cells and the control cells. Assay was carried out for the indicated periods at 4° C. in the absence (total) or presence of 500 nM Mesd (non-specific). (B) Saturation binding of ^125I-Mesd to LRP6-transduced HT1080 cells and the control cells. Assay was carried out at indicated concentrations for 3 hours at 4° C. in the absence (total) or presence (non-specific) of 500 nM Mesd. (C) Scatchard plots of data in B. All values are the average of triple determinations with the s.d. indicated by error bars.
Cells (2×10^5) were seeded into 12-well dishes 1 day prior to assay. […] Thereafter, overlying buffer containing unbound ligand was removed, and cell monolayers were washed and lysed in low-SDS lysis buffer (62.5 mM Tris-HCl pH 6.8, 0.2% SDS, 10% v/glycerol) and counted.

Another test concerns Wnt signaling. Briefly: Wnt signalling TCF/LEF-Luc assay in HEK293 cells (Wnt3A conditioned medium plus Dkk1). It counts as cell-based. As to conditions: Wnt3A conditioned medium plus Dkk1 protein at 10 nM. As for the experimental part:
HEK293 cells were plated into six-well plates. For each well, […] of the TOP-[…] luciferase construct (Upstate Biotechnology) was cotransfected with 0.8 μg Mesd-expressing vector, 0.8 μg Mesd mutant-expressing vector, or empty vector. A β-galactosidase-expressing vector (Promega, Madison, Wis.) was included as an internal control for transfection efficiency. After 48 hours, cells were lysed and both luciferase and β-galactosidase activities were determined with enzyme assay kits (Promega). The luciferase activity was determined with a luminometer using the Dual Luciferase Assay system (Promega). Luciferase activity was normalized to the activity of the P-galactosidase.

Test [2] has as its target LRP6 (Homo sapiens, UniProt O75581). As to the kind of experiment: LRP6-mediated ^125I-DKK1 degradation in LRP6-transduced HT1080 cells. The format is cell-based. Further details: plasmid pCS-Myc-hLRP6 containing the full-length human LRP6 cDNA; HA; expressed in transfected cells; host or cells: human HT1080 cells, stably transduced (pLNCX2 retroviral vector). As to conditions: 500 nM competitor, 4 hours at 37° C. The protocol: Ligand degradation was performed using the methods as described (Li, Y., J. Biol. Chem. 275: 17187-17194, 2000). Briefly, 2×10^5 cells were seeded into 12-well dishes 1 day prior to assay. Pre-warmed assay buffer (minimal Eagle's medium containing 0.6% BSA with radioligand, 0.6 ml/well) was added to cell monolayers in the absence or the presence of unlabeled 500 nM RAP or 500 nM Mesd, followed by incubation for 4 hours at 37° C. Thereafter, the medium overlying the cell monolayers was removed and proteins were precipitated by addition of BSA to 10 mg/ml and trichloroacetic acid to 20%. […] After each time point, the plates were quickly placed on ice and the assay buffer was replaced with cold stop/strip solution. ^125I-anti-HA IgG that remained on the cell surface was stripped by incubation of cell monolayers with cold stop/strip solution for a total of 20 minutes (0.75 ml for 10 minutes, twice) and counted. Cell monolayers were then solubilized with low-SDS lysis buffer and counted. […] The fraction of internalized ^125I-anti-HA IgG after each time point was calculated and plotted.
RAP is a receptor antagonist for members of the LDLR family, and is able to inhibit the binding of most known ligands of the LDLR family members. […] Cell-surface-bound Myc-tagged DKK proteins were fixed and detected by immunofluorescence staining with anti-Myc antibody. […]

Chain of LRP6 (Homo sapiens, UniProt O75581) (O75581 20-1613): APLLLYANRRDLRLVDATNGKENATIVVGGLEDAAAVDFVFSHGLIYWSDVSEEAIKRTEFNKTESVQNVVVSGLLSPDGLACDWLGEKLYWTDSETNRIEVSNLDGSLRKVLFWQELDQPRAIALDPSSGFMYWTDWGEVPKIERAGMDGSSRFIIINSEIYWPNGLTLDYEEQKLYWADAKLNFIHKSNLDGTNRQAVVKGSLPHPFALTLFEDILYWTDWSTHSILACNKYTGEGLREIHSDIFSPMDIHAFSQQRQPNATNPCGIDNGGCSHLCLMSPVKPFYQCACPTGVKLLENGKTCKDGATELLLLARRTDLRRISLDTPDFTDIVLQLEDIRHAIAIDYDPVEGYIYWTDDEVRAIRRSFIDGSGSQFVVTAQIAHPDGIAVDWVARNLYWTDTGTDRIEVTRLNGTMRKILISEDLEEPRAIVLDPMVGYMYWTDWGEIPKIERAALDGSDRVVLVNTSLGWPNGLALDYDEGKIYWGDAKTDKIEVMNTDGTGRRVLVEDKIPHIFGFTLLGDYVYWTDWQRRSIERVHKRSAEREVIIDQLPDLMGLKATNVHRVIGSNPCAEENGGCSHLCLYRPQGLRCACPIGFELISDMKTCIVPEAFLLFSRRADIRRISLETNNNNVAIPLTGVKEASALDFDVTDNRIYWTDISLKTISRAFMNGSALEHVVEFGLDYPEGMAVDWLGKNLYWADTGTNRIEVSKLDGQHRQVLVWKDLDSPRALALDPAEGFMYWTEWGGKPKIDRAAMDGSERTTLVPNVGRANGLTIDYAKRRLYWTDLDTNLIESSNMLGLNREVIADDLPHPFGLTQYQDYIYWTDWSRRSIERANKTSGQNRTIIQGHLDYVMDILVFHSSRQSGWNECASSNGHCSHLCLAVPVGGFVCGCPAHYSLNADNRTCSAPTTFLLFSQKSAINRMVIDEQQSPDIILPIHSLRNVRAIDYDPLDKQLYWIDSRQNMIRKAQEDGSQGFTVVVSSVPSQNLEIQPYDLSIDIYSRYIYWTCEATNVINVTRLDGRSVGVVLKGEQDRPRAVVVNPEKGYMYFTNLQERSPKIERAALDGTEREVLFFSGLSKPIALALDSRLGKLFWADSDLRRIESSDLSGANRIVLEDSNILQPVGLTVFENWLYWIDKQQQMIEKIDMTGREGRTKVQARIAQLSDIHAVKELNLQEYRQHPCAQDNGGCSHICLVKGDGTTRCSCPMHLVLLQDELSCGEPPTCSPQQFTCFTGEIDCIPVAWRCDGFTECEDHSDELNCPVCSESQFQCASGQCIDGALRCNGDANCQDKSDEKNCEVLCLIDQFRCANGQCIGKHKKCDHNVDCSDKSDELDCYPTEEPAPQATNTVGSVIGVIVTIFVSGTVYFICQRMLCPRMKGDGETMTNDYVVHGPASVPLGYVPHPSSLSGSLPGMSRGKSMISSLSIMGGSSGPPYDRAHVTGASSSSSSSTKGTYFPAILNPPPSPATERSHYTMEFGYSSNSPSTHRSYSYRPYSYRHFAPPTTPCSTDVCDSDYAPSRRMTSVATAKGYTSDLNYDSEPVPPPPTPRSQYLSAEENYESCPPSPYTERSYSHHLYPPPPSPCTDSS

B1: Mesd: recombinant wild-type mouse Mesd, polyhistidine tail at the N-terminus, lacks the signal peptide, expressed in E. coli (protein)
chain: ADTPGEATPPPRKKKDIRDYNDADMARLLEQWEKDDDIEEGDLPEHKRPSAPIDFSKLDPGKPESILKMTKKGKTLMMFVTVSGNPTEKETEEITSLWQGSLFNANYDVQRFIVGSDRAIFMLRDGSYAWEIKDFLVSQDRCAEVTLEGQMYPGKGGGSKEKNKTKPEKAKKKEGDRKPRASKEDNRAGSRREDL
modifications: left off: small tags and cut ends
notes: recombinant wild-type mouse Mesd, polyhistidine tail at the N-terminus, lacks the signal peptide, expressed in E. coli
As to B1, in the test with LRP6 [1], the “^125I-Mesd binding to control cells (pLNCX2)” value is listed as “No significant ^125I-Mesd binding”. The “Restoring of Wnt signaling inhibited by Dkk1 (luciferase activity)” value in the test with Wnt signaling is on record as “at least partially restoring Wnt signaling”. The “Effect of excess unlabeled competitor on increased DKK1 degradation” value with LRP6 [2] was “abolished”.
